Tested on: T1, KZ-sarcin recombinant protein
T1 sequence: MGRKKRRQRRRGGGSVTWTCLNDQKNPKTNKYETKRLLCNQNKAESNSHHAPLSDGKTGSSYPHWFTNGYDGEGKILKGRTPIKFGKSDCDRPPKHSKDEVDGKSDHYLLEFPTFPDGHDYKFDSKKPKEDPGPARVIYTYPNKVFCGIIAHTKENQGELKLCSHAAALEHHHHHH

## caspase-3 (Sigma Chem. Co, U.S.A.)
  hydrolysis of KZ-sarcin by caspase-3, SDS-PAGE (room temperature, 15 minutes): KZ-sarcin recombinant protein was hydrolyzed by caspase-3 into two fragments of 12 kb and 8.5 kb
